Experimental data as given in PMC2661965.

T1: p65-V2, Q04207
T1 chain: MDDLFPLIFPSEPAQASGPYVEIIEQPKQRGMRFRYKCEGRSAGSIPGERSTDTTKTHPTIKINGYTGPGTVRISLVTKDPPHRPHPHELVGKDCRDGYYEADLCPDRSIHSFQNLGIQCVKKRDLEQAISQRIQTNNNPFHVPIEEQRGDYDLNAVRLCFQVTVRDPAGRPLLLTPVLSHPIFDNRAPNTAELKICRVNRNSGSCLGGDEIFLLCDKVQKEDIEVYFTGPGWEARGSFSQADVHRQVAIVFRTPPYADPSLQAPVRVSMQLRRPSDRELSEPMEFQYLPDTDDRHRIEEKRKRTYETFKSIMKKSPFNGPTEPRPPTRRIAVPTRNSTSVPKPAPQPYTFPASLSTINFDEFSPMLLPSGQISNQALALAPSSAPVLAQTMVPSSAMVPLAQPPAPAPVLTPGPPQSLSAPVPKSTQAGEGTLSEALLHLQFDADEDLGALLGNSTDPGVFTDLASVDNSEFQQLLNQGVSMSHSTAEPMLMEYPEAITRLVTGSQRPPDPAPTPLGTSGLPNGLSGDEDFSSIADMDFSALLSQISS

T2: V2-Trap-80, Q8VCD5
T2 chain: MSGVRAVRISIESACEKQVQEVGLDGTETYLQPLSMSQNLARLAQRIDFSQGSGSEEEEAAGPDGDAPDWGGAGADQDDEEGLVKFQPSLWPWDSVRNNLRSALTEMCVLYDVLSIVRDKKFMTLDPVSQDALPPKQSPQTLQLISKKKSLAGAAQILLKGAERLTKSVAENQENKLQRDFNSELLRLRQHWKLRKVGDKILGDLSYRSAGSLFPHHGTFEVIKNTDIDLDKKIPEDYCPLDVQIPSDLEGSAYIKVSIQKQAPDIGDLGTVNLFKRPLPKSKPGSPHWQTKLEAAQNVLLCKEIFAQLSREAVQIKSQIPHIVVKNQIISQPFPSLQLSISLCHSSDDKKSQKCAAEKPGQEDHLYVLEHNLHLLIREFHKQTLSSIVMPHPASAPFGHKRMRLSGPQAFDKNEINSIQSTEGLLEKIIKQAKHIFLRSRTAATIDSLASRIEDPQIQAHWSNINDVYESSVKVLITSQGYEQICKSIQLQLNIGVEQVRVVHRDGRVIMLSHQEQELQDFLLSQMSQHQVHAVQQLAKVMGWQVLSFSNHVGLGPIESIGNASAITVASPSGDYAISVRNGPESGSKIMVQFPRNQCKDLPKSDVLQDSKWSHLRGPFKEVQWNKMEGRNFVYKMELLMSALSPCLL

B1: p65ΔTA2 fused to Venus fragment 1, Q04207 D539A; F540A (protein)
chain: MDDLFPLIFPSEPAQASGPYVEIIEQPKQRGMRFRYKCEGRSAGSIPGERSTDTTKTHPTIKINGYTGPGTVRISLVTKDPPHRPHPHELVGKDCRDGYYEADLCPDRSIHSFQNLGIQCVKKRDLEQAISQRIQTNNNPFHVPIEEQRGDYDLNAVRLCFQVTVRDPAGRPLLLTPVLSHPIFDNRAPNTAELKICRVNRNSGSCLGGDEIFLLCDKVQKEDIEVYFTGPGWEARGSFSQADVHRQVAIVFRTPPYADPSLQAPVRVSMQLRRPSDRELSEPMEFQYLPDTDDRHRIEEKRKRTYETFKSIMKKSPFNGPTEPRPPTRRIAVPTRNSTSVPKPAPQPYTFPASLSTINFDEFSPMLLPSGQISNQALALAPSSAPVLAQTMVPSSAMVPLAQPPAPAPVLTPGPPQSLSAPVPKSTQAGEGTLSEALLHQLLNQGVSMSHSTAEPMLMEYPEAITRLVTGSQRPPDPAPTPLGTSGLPNGLSGDEDFSSIADMAASALLSQISS

Tests used:
Experiment in all cases: BiFC
V2-Trap-80 = V2-Trap-80 (UniProt Q8VCD5); settings: HEK-293 cells, co-transfection; parent: est. 72; read off a plot
p65-V2 = p65-V2 (UniProt Q04207); settings: HEK-293 cells, co-transfection; parent: est. 740; read off a plot
p65-V2, Q04207 = biological target: T1, p65-V2, Q04207; settings: chain shown with the change; HEK-293 cells, co-transfection; parent: est. 740; read off a plot
V2-Trap-80, Q8VCD5 = biological target: T2, V2-Trap-80, Q8VCD5; settings: chain shown with the change; HEK-293 cells, co-transfection; parent: est. 72; read off a plot

Molecule | response (V2-Trap-80) [% wt p65] | response (p65-V2) [% wt p65] | response (p65-V2, Q04207) [% wt p65] | response (V2-Trap-80, Q8VCD5) [% wt p65]
p65ΔTA2 fused to Venus fragment 1 (from UniProt Q04207) TA1 mut528-534 | 40 | 550 |  | 
p65ΔTA2 fused to Venus fragment 1 (from UniProt Q04207) TA1 mut535-541 | 38 | 640 |  | 
B1 |  |  | 600 | 35
